Experiment: label from the status in PepcDB records
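Further: failed if final PepcDB status was selected cloned or expressed and not failed if soluble or beyond.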

| Sequence | protein production |
| --- | --- |
| MRTPTTILLLVGAILFSGAGYVRSDASDHRYKEGDTVPLYANKVGPFHNPSETYRYFDLPFCIPEGVKEKKEALGEVLNGDRLVSAPYKLNFRDEKESEVYCNKKLSKEEVKQFRKAVEKDYYFQMYYDDLPIWGFIGKVDKDIKSDPSEFKYFLYKHIQFEILYNKDRVIEISARMDPHSLVDLTEDKEVDAEFMYTVKWKETETPFEKRMEKYSMSSSLPHHLEIHWFSIINSCVTVLLLTGFLATILMRVLKNDFMKYAQDEEAADDQEETGWKYIHGDVFRFPTHNSLFAASLGSGTQLFTLTIFIFMLALVGVFYPYNRGALFTALVVIYALTSGIAGYTSASFYCQLEGKSWVRNLLLTGCLFCGPLFLTFCFLNTVAITYTATAALPFGTIVVIVLIWTLVTSPLLVLGGIAGKNSKAEFQAPCRTTKYPREIPPLPWYRSAIPQMAMAGFLPFSAIYIELYYIFASVWGHRIYTIYSILFIVFIILIIVTAFITVALTYFQLAAEDHQWWWRSFLCGGSTGLFIYAYCLYYYYARSDMSGFMQTSFFFGYMACICYGFFLMLGTVGFRAALLFVRHIYRSIKCE | failed |
| MILTILIGAMAAIFIAFNLFEKKEKYGVVSYKTIALSVTYVILAVIVGSFLDNFNTLFQGFHDSLTAAKRY | failed |
| MYLEKLQQWRYATADFSGAHITDDVLDKLLNTTRLTASSYGLQPYCTLVIRNKGLREQLVNHSFGQQKVADSSALVIFAAKTGAVADIVDPYISELSQQRQLTNEEAENTRNYFTQKLQAMSAATRKEWAVRQAYIGLGTFLLAAAELEVDSCPMEGIEHDAYDNILSLKDLGLSTVFACPVGYRSEADTTQFQKKVRQPLSRFKVVL | not failed |
| MTDIVLADRYRLGDVIGTGGMSEVYEATDVLLGRKVAVKMLRADLARDVNFRERFRREAQNSGKLNHPAIVAVYDTGETPRAGLNTPYIVMELVNGRTLRDIVREDGPLTPSQAAHTLIPVCHALQVSHDAGIIHRDIKPANVMITNTGAVKIMDFGIARALDDATSAMTQTSAVIGTAQYLSPEQARGKLADARSDVYALGCVLYETLTGKPPFEGETPFAVAYQHVQEDPVKPSEYIADLSPTAAINVDAVVLTAMAKHPGDRYQTAQEMCADLERLGRNAVTDAARHYVTPTSFATQDPASTTVVPVTQVTELDHAEAGAGIGAGVVPAGAVAGSAAVAGSGGAHAAPRSSNRGLRILAAILAVLVLAVGAGFAIDYFGGGPFSQRSTVTIPKLQNSTQQDAVNQLEKLGLQVNVIEEPNPDIPRGKVIRTNPTDGSNVQRNSTVRLTISSGKEITEVPDLSGKNTADAVKILEAAGLLLDPTVREDSSDTVPKGEIIEVSPAAGSQVSRGSKVSITVSTGVETVRVPVITGMKWDQAEGNLTSLGFKPEVVRVDSVEPAGTVVAVPDEGAEVPKGSSVTVQISNGAMFTVPEITRQTIDDAVRILHDAGWKGNASRLIQAAKVPTVAVTDQNLIASQLPTPGTALRKDAPIEIRLYEFNLAALVPPAQH | failed |
| MWKPLLIAVGLLSLVCGAIGVVLPVIPTTPFLLLSAFCFTRSSERLHNYLVSHRIFGEYISNYYNHAMTPQHKFRTLLTLWCGIILSCFLIGATIPWIILPLIATGVSIHIIRLKPRPEATPTASSPEADSGSEPHFADDHKA | failed |
| CSDLPEIQNGWKTTSHTELVRGARITYQCDPGYDIVGSDTLTCQWDLSWSSDPPFCEKTEE | not failed |
| MLIKKIDLHKDPIRKLFFYYFIPLAFSMISLSTYSMIDGMFVGKKLGKEAIAAVNIAWPIFPGLIAYELLFGFGAASIVGYFLGQNKTHRARLVFSSVFYFVAISAFILSMALLPFSETIARFFGSNDALLSMSKRYIEIILMGAVFMVLHPLADVFVVNDKRPILAMVAMLIGSLANIFFNYLFIFVLKVGVQGSAIATVIGHAIGVLVLMQHFWRKKGQLYFIKRFSLSSVISSAKSGVPQSTAEFSASVMILLFNTAIMHTAGERFVSMYGIVMYNAIIFFTTLFAISQGIQPIASFSYGARNLERVKEVFVFGLKAAFCIGIVFYGAYYFLDEFLIKLYLQPSEQDPLFMQETKRAMNIYYVGYIFLGMTLLCAVFFQSIQRTKSSFIITLSHTLGFIVILLPILSHFYGINGVWVTYPIAQFLAFLVALGVTYYEIKKGVFTTYKEKNPIALKT | failed |
| MQDWWEADNRLADWLSMILIQRTIEKNAKQALANLGPHLDLESLIGMDMATLEEYIYPAGFYKQKSIYIKALIKWFHGHGASLDKFQTYSTEDLRKELLGIKGVGEETADAMLLYIFERNVFIADLEHHHHHH | failed |
| MTQQHLFPSTKAKSYKLFCFYLLILTSLLHPATAGAADITQQLHRPVNSSMGRQSRDEADSLLRVAEQQYAAGCADKAIDSGLQALDIYHLIGDLRAKGLTYNLLAKAYIELGRFKEGEDALRRRLAIARDTKDFQSQIFALNNLGTLLLQAGEPKAAGETIQEAYTIADNVKNIDGEGLSLSNLGLVSSRLGDYNKAIKLYETALIFRRRTGDAPGEMNTLNNLGDAYLAAGNYPDTIGTYGAAMRIAKTLGDRSNQLRAIDGLVTAHSAVGRYERAFDLLQQRLTIAQELQNLREELKSFESYAKLYEQLGNYPTARNFYERAIIISQTLEDNKQEVFLRDRLTQMLRSQKSILK | failed |
| MNSIVSTVRGILTLSRSETFDSPRDEAKSDLKVLSVAWNQVCSGFIVGTNHGFNVYSCKPMIKKSISRAPHESGFKVAEMLFLSNLFAFVGNGYNNSEYPPNKVFVWDDYRNCCLSELTFKSEVIAVKLAREHVVVVLKQNIYVYTFNNLKVDRVIETLMNPKGLCCVTHVESKAVLACPGFHPGQVQVHDLRWNVIKFIKAHDSAIACMTLTLDGSLLATASTKGTLIRIFNAVDGTLLQEFRRGVERAEIYNVAISSNLKWVAASSEKGTLHVFRLRPDILSFDPASSSSFIRVILPKYLYENERSFAQFSLPASTKFIVGFGSENTVLLVGIDGSFRRCKFDHADGGQMVELEHKYFFSLQETGNTMVGGV | failed |
| MFMKKWIGIDLGTTNTVASYFDVSSKIILNERGERITPSIVSFSDKDVLVGSAAKNQILVNPQKTFYNFKTNIGSNNFYKVDGEFYKAEYISAHLLASVKRNAEKFLDEEIENAVITVPAYFSEIQRRCVVEAANFAGLNCKAILNEPTAAAIAYAFERQIDGIFLIYDLGGGTFDVTLMEKQGDTYTVLSVKGQSRLGGNDFNKIIEKYVLDSFKNKYPDFNLEDIFLLEQLRERIEEGKKNLSVMEEVDITLLFLDGKHLNYNLKRDEFNSMISEYIDKTIQLSMECIADSGVDISSVSKIILSGGSTRIPLIEKVLKESFPSATILDALNQDEVVAIGAGIHAFSLSRNDSVIKFKDVTPYSLGLEIKDNEFFTLIKRNTALPISRSKLFTTTNDYQDEIEIHILQGEYKKASLNYSIGRFSFGNIQKALKGIPKIEVLFTLNESGILSVNAKDLETNSSNFIEIKITSSSDNVAKESLSNTFTSIID | failed |
| MKEFFKMFFASILGVITAGIILFCIFLFIFFGIVAGIASKATGGTIPKIEANSILHIDNSSFPEIVSANPWSMLTGKDESVSLSQAVEAIGQAKNNPNITGIFLDLDNLSVGMASAEELRRALQDFKMSGKFVVSYADRYTQKGYYLSSIADKLYLNPKGMLGLIGIATQTMFYKDALDKFGVKMEIFKVGTYKAAVEPFMLNRMSDANREQITTYINGLWDKITSDIAESRKTAMDSVKMFADKGEMFGLAEKAVEMKLVDELAYRTDVEKELKKMSQRGEKDELRFVSLSQVLANGPMNKTKGSRIAVLFAEGEITEEIIKKPFDTDGSSITQELAKEIKAAADDDDIKAVVLRVNSPGGSAFTSEQIWKQVADLKAKKPIVVSMGDVAASGGYYIACAANSIVAEHTTLTGSIGIFGMFPNFAGVAKKIGVNMDVVQTSKYADLGNTFAPMTVEDRALIQRYIEQGYDLFLTRVSEGRNRTKAQIDSIAQGRVWLGDKALALGLVDELGGLDTAIKRAAKLAQLGGNYSIEYGKTKRNFFEELLSSSAADMKSAILSTILSDPEIEVLRELRSMPPRPSGIQARLPYYFMPY | failed |
| MSDVAATAQRQQVRQQGLILGLVTLPFRCFGVLCGSLFLCIVIECIGMALFWPDQGWRHAQAMLGHELDQLSDYFVRSALVQEPGRTAHQWIQHAYEWAFVRSGLLEWMQDASRQARAGASGRPWSLPQVLATVSMHAEGYLIAAAYTVLLFLVRLLMLCLTLPLFALAAFVGLVDGLVRRDIRRFGAGRESGFLYHRARASLVPLAVLPWVTYLALPVRVHPVVILLPSAVLLGVAVDIAAGSFKKYL | failed |
| MTSQGRAAMVRRMHDPQQPIRWRDLDLDPTHWVREILRVLGLALSRLWGRDVMLYVGGVSFFALLAVFPGLAILIGLYSLFLTPETAAWQAVKLAELIPSGARSIVQDELSRLAHAPGQTISLQSGVVLIVGAYAAHRGFKALLAGLSFIHDEENQRGFLGFNLMALLVLMAAFGLLFIMSGIFLTLRLLGTALELRPLAGVSWIQSEWTWASFGIVVGMSLVYRYAMSRQIVGWRASIAGGVAAAALCVFMSWASAFYVEKVVHLGATYGSVSAVIIFLIWLSWSVNAIFFGGALATEVEIALDERPRALLEGPRPIALKAPSESES | failed |
| MTDYTKLQQVRQWTQDNHVDVTYISNFHTISYLTGFESNPYERTLALFVFADAEPFLFAPALEVEAIKEMGWPYKVFGYLDHENPYALIADHIHAQLTDPKVWALETGNLTLDRFTALKQQFPAAHFDKDLSPYIQQLRLVKTADELEKLNIAGKWADFAFEQGFAAVKAGRTEQQIAAELQYALMKKGIMEMSFDTLVQAGEHAANPHGATNETQVKPNELVLFDLGVMYEGYASDASRTIAYGQPSAKQKEIFDVCLEANLTAQAAIKPGMAAEDVDKIARDIITKAGYGEYFIHRLGHGIGQTDHEFPSIMAGNHMPLVEGMCFSVEPGIYIPGVAGVRIEDCGVVTKEGFKPFTHTPKELKVLDL | failed |
| MNLLVTSSLGVLLHLVVLCQADDHSELLVNTKSGKVMGTRVPVLSSHISAFLGIPFAEPPVGNMRFRRPEPKKPWSGVWNASTYPNNCQQYVDEQFPGFSGSEMWNPNREMSEDCLYLNIWVPSPRPKSTTVMVWIYGGGFYSGSSTLDVYNGKYLAYTEEVVLVSLSYRVGAFGFLALHGSQEAPGNVGLLDQRMALQWVHDNIQFFGGDPKTVTIFGESAGGASVGMHILSPGSRDLFRRAILQSGSPNCPWASVSVAEGRRRAVELGRNLNCNLNSDEELIHCLREKKPQELIDVEWNVLPFDSIFRFSFVPVIDGEFFPTSLESMLNSGNFKKTQILLGVNKDEGSFFLLYGAPGFSKDSESKISREDFMSGVKLSVPHANDLGLDAVTLQYTDWMDDNNGIKNRDGLDDIVGDHNVICPLMHFVNKYTKFGNGTYLYFFNHRASNLVWPEWMGVIHGYEIEFVFGLPLVKELNYTAEEEALSRRIMHYWATFAKTGNPNEPHSQESKWPLFTTKEQKFIDLNTEPMKVHQRLRVQMCVFWNQFLPKLLNATACDGELSSSGTSSSKGIIFYVLFSILYLIF | not failed |
| MLSERAAQMVIFSALIKHKNFTVAAKSLGVSVSHVSKQLSQLEESLGIKLVQRTTRSFTPTEAGKTFYHHCEQVVQAVSSATLEMESQRDEVAGLVRLGLSQSFGTLHIIPAIQELRELYPQLQVEVHLFDYKVDMLAEGLDLWVTNNEHLPEGYIAQRLTDCQFVVAASPDYLLKYDTPTEPNDLSLHNCLIYRSWERDYTGWAFTKGQQELNVKVSGNYSVDLAEAVRDAAIAGWGIAYLATYLLGDEFRTGKLIQLLPDWKASQSMPFYAVYPSRQHMPKKISAVINFIKQKIGNPCHWDQRLAPYISIPK | failed |
| MTRRGWILFVALCVLWGIPYLLIKVAVRDLTPASLVFLRTATGAVLLLPFVLVRGNLRPVLARWRPIALFTFGEMAVPWLLLADAERHVTSSLAGLVIAATPLVGALASRLSAGHEPLGARRMSGLAVGLAGVVALLGLDLGRGDARAVAELAVVVIGYALAPRIVARRLSDLPALDVVAVSLAMCALAYAPFGIAQLPAALPPAEALGAVAGLGVLCTALAFTLFFQLIAEVGPVRATVVAYVNPAVAVAAGVTLLGEPFTVGTAVGFALILGGSWLATSGAAGRARTPAPASAPAAPGAVAPAAAERAG | failed |

From a protein production outcome set (Wang et al. 2014)
